Laboratory results taken from US20200254116A1.
Non-standard residues stand in square brackets, D forms with d. No end group written: not given here. *: point of attachment. Phe(4-I) = N[C@@H](Cc1ccc(I)cc1)C(=O)O; Fmoc = O=C(OCC1c2ccccc2-c2ccccc21)*

Substrate: FBS (fetal bovine serum) proteins
Assay: FBS protein binding assay: 25 uM agent in 100% FBS, Amicon 10 K cutoff ultrafiltration, fluorescence of fractions

Fmoc-[Phe(4-I)]LPNSNHIK(IRDye800)QGL [4Iphf-HN18-IR800] gave a percent bound of 70%.

TSPLNIHNGQK(IRDye800)L [HN1-IR800] was tested, and the percent bound was 52%.
